pKd: −log10 of the molar value.
Legend:
[1] = molecular target: WspR-His (Lysobacter enzymogenes OH11)
[2] = molecular target: WspR-His (Lysobacter enzymogenes OH11); assay: MST; 100 nM WspR-His labelled with RED-Tris-NTA, titrated with MBP-RpfG or its variant; 50 mM Tris pH 7.5, 150 mM NaCl, 10 mM MgCl2, 0.05% Tween 20; 25 °C; Monolith NT.115
[3] = molecular target: WspR-His~P (Lysobacter enzymogenes OH11); assay: as above
[4] = molecular target: WspR-His (Lysobacter enzymogenes OH11); assay: MST; as the WspR-RpfG MST assay, with 10 μM DSF added
[5] = molecular target: WspR-His (Lysobacter enzymogenes OH11); assay: MST; as the WspR-RpfG MST assay, with 10 μM c-di-GMP added

WspR-His (Lysobacter enzymogenes OH11), sequence (main, as listed by the source): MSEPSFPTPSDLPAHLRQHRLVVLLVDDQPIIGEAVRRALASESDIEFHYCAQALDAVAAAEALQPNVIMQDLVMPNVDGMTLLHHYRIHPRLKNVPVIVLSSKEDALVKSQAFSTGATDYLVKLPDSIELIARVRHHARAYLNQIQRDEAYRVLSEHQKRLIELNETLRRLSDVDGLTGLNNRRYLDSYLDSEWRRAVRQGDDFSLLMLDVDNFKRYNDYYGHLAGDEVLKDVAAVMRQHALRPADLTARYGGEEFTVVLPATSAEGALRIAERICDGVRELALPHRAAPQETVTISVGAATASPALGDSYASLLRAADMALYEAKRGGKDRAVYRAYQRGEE
WspR-His~P (Lysobacter enzymogenes OH11), sequence (main, as listed by the source): as above

Row | reduction of c-di-GMP production by WspR-His from GTP (HPLC peak area) on addition of MBP-RpfG^H190A [1] | pKd [2] | pKd [3] | reduction of c-di-GMP production by WspR-His from GTP (HPLC peak area) on addition of MBP-RpfG [1] | pKd [4] | pKd [5] | Substance
1 | 34% | 6.70 | 6.25 | – | – | – | MBP-RpfG^H190A (enzyme)
2 | – | 6.62 | – | – | – | – | phosphorylated RpfG (RpfG~P) (enzyme)
3 | – | 6.82 | 6.03 | 82% | 6.60 | 6.49 | MBP-RpfG (enzyme)

Reference: article PMC9758175
